The data set addresses T1, ERG-ETS domain (UniProt P11308 307-400).
T1 sequence: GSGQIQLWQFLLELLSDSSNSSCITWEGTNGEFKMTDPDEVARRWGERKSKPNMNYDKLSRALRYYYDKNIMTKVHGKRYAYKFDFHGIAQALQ
In words: EMSA; no compound; 1 nM DNA; EMSA: protein stored in 20 mM sodium phosphate, 200 mM NaCl, 2 mM DTT, 0.1 mM EDTA, pH 6.5; reaction with 3% glycerol, 0.2 mg/mL BSA, 1 nM dsDNA, room temperature 1 h; 10% native gel run at 10 C. To be noted: protein: recombinant; tags: His6 removed by thrombin; label: Alexa-488; blunt.

B1: ETS consensus GGAA probe (dsDNA)
DNA 1: CGGCCAAGCCGGAAGTGAGTG
DNA 2: CACTCACTTCCGGCTTGGCCG
Regarding B1, the Kd is approximately 1 nM.
